{
  "source": "paper PMC10304963",
  "origin": "cited, not measured here",
  "key": {"[1]": {"target": "SIRPα variant 2 (Homo sapiens) (UniProt P78324)"}, "[2]": {"target": "SIRPα variant 1 (Homo sapiens) (UniProt P78324)"}},
  "data": [
    {"substance": "CD47 (from UniProt Q08722)", "values": [
      {"measurement": "Kd", "setting": "[1]", "value": 640, "unit": "nM"},
      {"measurement": "Kd", "setting": "[2]", "value": 740, "unit": "nM"}
    ]}
  ]
}
